According to US6509383:

How the values were obtained:
[1] = molecular target: his-tagged Drosophila PCNA (UniProt P17917)
[2] = molecular target: purified calf thymus DNA polymerase δ (calf (bovine)) (UniProt P28339); assay: cell-based or functional assay
Sequence of purified calf thymus DNA polymerase δ (calf (bovine)) (P28339 whole entry, stated change not applied): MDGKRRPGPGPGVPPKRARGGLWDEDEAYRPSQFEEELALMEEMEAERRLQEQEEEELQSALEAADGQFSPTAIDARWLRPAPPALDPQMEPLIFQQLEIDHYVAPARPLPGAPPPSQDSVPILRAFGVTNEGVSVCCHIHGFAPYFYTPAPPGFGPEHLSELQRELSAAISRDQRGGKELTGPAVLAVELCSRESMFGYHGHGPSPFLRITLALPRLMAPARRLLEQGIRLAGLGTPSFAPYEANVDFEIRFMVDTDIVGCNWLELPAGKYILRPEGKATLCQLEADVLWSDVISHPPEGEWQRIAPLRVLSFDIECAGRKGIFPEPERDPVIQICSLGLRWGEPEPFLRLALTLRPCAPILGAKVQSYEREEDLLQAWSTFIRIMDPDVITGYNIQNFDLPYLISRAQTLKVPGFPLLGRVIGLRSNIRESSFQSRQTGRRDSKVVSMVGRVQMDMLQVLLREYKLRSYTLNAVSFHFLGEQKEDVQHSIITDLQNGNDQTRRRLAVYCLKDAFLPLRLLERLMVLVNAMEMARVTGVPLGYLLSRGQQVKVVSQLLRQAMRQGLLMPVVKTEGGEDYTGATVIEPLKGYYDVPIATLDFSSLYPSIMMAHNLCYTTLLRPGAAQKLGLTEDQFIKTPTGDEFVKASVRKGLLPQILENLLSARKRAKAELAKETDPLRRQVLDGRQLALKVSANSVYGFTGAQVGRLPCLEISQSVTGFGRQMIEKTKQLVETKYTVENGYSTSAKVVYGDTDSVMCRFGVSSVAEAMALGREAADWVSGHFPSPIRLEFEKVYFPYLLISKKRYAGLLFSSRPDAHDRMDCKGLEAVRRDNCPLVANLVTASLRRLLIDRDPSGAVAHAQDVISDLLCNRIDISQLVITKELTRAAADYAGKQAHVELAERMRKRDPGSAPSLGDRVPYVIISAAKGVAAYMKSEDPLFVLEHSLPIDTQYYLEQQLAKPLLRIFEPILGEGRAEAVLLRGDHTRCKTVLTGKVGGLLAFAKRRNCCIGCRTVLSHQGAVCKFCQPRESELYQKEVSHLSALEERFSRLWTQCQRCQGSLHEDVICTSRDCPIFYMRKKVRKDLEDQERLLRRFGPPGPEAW

Sequence of his-tagged Drosophila PCNA (P17917 whole entry): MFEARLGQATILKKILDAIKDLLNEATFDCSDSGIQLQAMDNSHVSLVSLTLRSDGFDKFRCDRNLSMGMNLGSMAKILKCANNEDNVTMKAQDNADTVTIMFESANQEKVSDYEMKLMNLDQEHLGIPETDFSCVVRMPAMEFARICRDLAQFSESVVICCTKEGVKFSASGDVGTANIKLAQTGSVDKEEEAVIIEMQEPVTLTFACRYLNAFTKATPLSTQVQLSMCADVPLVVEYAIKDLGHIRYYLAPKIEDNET

| solution assay of pol δ: extended DNA synthesis beyond model abasic template lesions, compared with wild-type PCNA (phosphorimager) [2] | Substance | in situ DNA polymerase assay on Ni2+-IDA-paper ([alpha-32P]dGTP incorporation, PhosphorImager) [1] |
| --- | --- | --- |
|  | purified calf thymus DNA polymerase δ | almost no reactivity was observed corresponding to the spot of Drosophila PCNA |
| 40% | NH2-terminally his-tagged E^85>K mutant human PCNA (from UniProt P12004 1-261) |  |
